Data reported in article PMC4957052 (The Journal of Biological Chemistry, 2016).

T1: mouse β-catenin (GST cleaved) (mouse, UniProt Q02248 1-781)
T1 construct: β-catenin, mouse; Probably the construct of m7 (full length) after TEV cleavage; source: E. coli BL21(DE3), purified (glutathione-agarose, TEV cleavage, Mono Q, S200 gel filtration)
T1 sequence (looked up): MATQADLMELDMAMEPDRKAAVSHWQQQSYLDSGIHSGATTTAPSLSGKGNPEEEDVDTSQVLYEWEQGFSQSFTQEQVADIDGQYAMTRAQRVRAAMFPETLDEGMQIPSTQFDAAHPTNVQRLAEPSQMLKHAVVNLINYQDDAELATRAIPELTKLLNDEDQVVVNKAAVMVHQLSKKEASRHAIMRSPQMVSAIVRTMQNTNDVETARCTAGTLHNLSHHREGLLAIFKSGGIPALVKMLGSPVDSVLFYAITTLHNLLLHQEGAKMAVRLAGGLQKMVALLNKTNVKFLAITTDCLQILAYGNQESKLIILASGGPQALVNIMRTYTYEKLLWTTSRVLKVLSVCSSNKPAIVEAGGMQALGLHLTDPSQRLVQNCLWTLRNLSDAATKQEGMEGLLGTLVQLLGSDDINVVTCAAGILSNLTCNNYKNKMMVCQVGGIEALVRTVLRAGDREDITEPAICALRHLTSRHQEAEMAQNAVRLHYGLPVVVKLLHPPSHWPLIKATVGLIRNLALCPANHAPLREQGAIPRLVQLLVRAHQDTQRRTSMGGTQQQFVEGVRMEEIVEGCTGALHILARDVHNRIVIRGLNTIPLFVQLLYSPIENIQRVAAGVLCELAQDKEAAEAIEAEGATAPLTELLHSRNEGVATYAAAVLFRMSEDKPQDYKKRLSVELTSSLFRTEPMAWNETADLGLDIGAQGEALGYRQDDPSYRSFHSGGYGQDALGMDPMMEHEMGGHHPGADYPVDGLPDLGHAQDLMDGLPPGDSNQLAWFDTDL

T2: M. musculus αE-catenin (M. musculus), P26231
T2 chain: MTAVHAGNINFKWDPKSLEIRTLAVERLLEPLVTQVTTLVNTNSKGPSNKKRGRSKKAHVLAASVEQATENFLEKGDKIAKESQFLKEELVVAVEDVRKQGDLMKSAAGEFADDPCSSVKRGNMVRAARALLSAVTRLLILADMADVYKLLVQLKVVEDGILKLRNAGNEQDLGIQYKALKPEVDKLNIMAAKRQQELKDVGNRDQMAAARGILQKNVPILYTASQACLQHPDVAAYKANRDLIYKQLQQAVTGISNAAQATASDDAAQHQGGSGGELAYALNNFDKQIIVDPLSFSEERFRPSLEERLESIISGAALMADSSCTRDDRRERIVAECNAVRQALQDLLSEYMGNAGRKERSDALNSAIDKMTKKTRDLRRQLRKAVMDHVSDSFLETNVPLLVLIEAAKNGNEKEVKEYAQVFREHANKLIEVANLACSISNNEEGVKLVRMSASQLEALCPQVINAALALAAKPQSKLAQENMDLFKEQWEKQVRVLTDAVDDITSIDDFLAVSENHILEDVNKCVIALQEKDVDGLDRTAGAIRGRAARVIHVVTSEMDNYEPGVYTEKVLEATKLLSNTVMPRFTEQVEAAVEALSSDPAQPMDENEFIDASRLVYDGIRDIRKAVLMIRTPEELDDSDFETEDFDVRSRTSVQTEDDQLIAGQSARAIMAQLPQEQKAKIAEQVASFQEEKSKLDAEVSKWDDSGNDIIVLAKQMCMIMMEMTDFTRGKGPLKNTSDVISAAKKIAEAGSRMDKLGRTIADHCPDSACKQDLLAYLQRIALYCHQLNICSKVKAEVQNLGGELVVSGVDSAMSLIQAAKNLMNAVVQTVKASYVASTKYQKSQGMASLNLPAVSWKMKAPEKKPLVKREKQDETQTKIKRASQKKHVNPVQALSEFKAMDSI


Legend:
[1] = target: the molecule itself; experiment: SEC + other: sucrose density gradient centrifugation; analytical Superdex 200 at 4 °C in 20 mM Tris pH 8.0, 150 mM NaCl, 1 mM DTT, protein injected at 25-30 μM (25-50 μM in the results); 5-20% sucrose gradients, 200,000 x g 4 h 4 °C, protein loaded at ≥20 μM; molecular mass from Stokes radius and sedimentation coefficient
[2] = target: T1, mouse β-catenin (GST cleaved); experiment: not stated; purified mouse β-catenin mixed with αT-catenin; data not shown; settings: both partners purified
[3] = target: T2, M. musculus αE-catenin (M. musculus), …; experiment: SEC + other: sucrose density gradient centrifugation; analytical Superdex 200 at 4 °C in 20 mM Tris pH 8.0, 150 mM NaCl, 1 mM DTT, protein injected at 25-30 μM (25-50 μM in the results); 5-20% sucrose gradients, 200,000 x g 4 h 4 °C, protein loaded at ≥20 μM; molecular mass from Stokes radius and sedimentation coefficient; settings: remark: other sources report otherwise

Binder	stoichiometry N [1]	further results
αT-catenin V94D ΔABD (aa 1-659) (domain or fragment, M. musculus, UniProt Q65CL1 1-659, looked up, αT-catenin, Mus musculus, N-terminal head region aa 1-659 (ABD aa 660-895 deleted) with V94D; source: E. coli BL21(DE3), purified (glutathione-agarose, TEV cleavage, Mono Q, S200 gel filtration)) MSAETPITLNMDTQDLQIQTFTVEKLLEPLIIQVTTLVNCPQNPSNRKKGRSKRARVLLASVEEATWNLLDKGEMIAKEATVLKEELAAALQEDRKESKALKVSAERFTDDPCYLPKREAVVQAARALLAAVTRLLVLADMIDVMCLLQHVSSFQRTFESLKNVSNKSDLQRTYQKLGKELESLDYLAFKRQQDLKSPSQRDEIAGARATLKENSPLLHSICSACLEHSDVASLKASKDTVCEEIQNALDVISNASQGIQNAPAPPEPQAATLGSAFDELENLIVLNPLTVTEEDVRPSLEKRLEAIISGAALLADSSCTRDLHRERIIAECNAIRQALQDLLTEYMSNTGKTERSNTLNTAIVNMSKKTRDLRRQLRKAIIDHISDSFLDTTVPLLVLIEAAKNGRVKEIKDYAAIFHEHTGRLVEVANLACSMSTNEDGIKIVRIAANHLETLCPQIINAALALASRPKSQVVKNTMEMYKRTWEHYIHVLTEAVDDITSIDDFLAVSESHILEDVNKCIIALRDQDADNLDRAAGAIRGRAARVAHIVAGEMDSYEPGAYTEGVMRNVNFLTSTVIPEFVTQVNVALDALSKNSLTALDDNQFVDISKKIYDTIHDIRCSVMMIRTPEELEDVSDLEDDHEVRSHTSIQTEGKTDR	2	
M. musculus αT-catenin (wild type, full length) (natural protein, UniProt Q65CL1 1-895, looked up, Cloned into pGEX-TEV; cleaved from GST with tobacco etch virus protease; also called αT (testes)-catenin; WT αT-catenin; source: E. coli BL21(DE3), purified (glutathione-agarose, TEV cleavage, Mono Q, S200 gel filtration)) MSAETPITLNMDTQDLQIQTFTVEKLLEPLIIQVTTLVNCPQNPSNRKKGRSKRARVLLASVEEATWNLLDKGEMIAKEATVLKEELAAALQEVRKESKALKVSAERFTDDPCYLPKREAVVQAARALLAAVTRLLVLADMIDVMCLLQHVSSFQRTFESLKNVSNKSDLQRTYQKLGKELESLDYLAFKRQQDLKSPSQRDEIAGARATLKENSPLLHSICSACLEHSDVASLKASKDTVCEEIQNALDVISNASQGIQNAPAPPEPQAATLGSAFDELENLIVLNPLTVTEEDVRPSLEKRLEAIISGAALLADSSCTRDLHRERIIAECNAIRQALQDLLTEYMSNTGKTERSNTLNTAIVNMSKKTRDLRRQLRKAIIDHISDSFLDTTVPLLVLIEAAKNGRVKEIKDYAAIFHEHTGRLVEVANLACSMSTNEDGIKIVRIAANHLETLCPQIINAALALASRPKSQVVKNTMEMYKRTWEHYIHVLTEAVDDITSIDDFLAVSESHILEDVNKCIIALRDQDADNLDRAAGAIRGRAARVAHIVAGEMDSYEPGAYTEGVMRNVNFLTSTVIPEFVTQVNVALDALSKNSLTALDDNQFVDISKKIYDTIHDIRCSVMMIRTPEELEDVSDLEDDHEVRSHTSIQTEGKTDRAKMTQLPEAEKEKIAEQVADFKKVKSKLDAEIEIWDDTSNDIIVLAKKMCMIMMEMTDFTRGKGPLKHTTDVIYAAKMISESGSRMDVLARQIANQCPDPPCKQDLLAYLEQIKFYSHQLKICSQVKAEIQNLGGELIVSALDSVTSLIQAAKNLMNAVVQTVKMSYIASTKIIRIQSSAGPRHPVVMWRMKAPAKKPLIKREKPEETWAAVRRGSAKKKIHPVQVMSEFRGRQVY		stoichiometry N [2]: 1
M. musculus αT-catenin V94D (full length) (natural protein, UniProt Q65CL1 1-895, looked up, αT-catenin, Mus musculus, full length, with the ARVC-linked V94D change made by site-directed mutagenesis; here it was put into the mouse protein; also called V94D mutant; V94D homodimer; source: E. coli BL21(DE3), purified (glutathione-agarose, TEV cleavage, Mono Q, S200 gel filtration)) MSAETPITLNMDTQDLQIQTFTVEKLLEPLIIQVTTLVNCPQNPSNRKKGRSKRARVLLASVEEATWNLLDKGEMIAKEATVLKEELAAALQEDRKESKALKVSAERFTDDPCYLPKREAVVQAARALLAAVTRLLVLADMIDVMCLLQHVSSFQRTFESLKNVSNKSDLQRTYQKLGKELESLDYLAFKRQQDLKSPSQRDEIAGARATLKENSPLLHSICSACLEHSDVASLKASKDTVCEEIQNALDVISNASQGIQNAPAPPEPQAATLGSAFDELENLIVLNPLTVTEEDVRPSLEKRLEAIISGAALLADSSCTRDLHRERIIAECNAIRQALQDLLTEYMSNTGKTERSNTLNTAIVNMSKKTRDLRRQLRKAIIDHISDSFLDTTVPLLVLIEAAKNGRVKEIKDYAAIFHEHTGRLVEVANLACSMSTNEDGIKIVRIAANHLETLCPQIINAALALASRPKSQVVKNTMEMYKRTWEHYIHVLTEAVDDITSIDDFLAVSESHILEDVNKCIIALRDQDADNLDRAAGAIRGRAARVAHIVAGEMDSYEPGAYTEGVMRNVNFLTSTVIPEFVTQVNVALDALSKNSLTALDDNQFVDISKKIYDTIHDIRCSVMMIRTPEELEDVSDLEDDHEVRSHTSIQTEGKTDRAKMTQLPEAEKEKIAEQVADFKKVKSKLDAEIEIWDDTSNDIIVLAKKMCMIMMEMTDFTRGKGPLKHTTDVIYAAKMISESGSRMDVLARQIANQCPDPPCKQDLLAYLEQIKFYSHQLKICSQVKAEIQNLGGELIVSALDSVTSLIQAAKNLMNAVVQTVKMSYIASTKIIRIQSSAGPRHPVVMWRMKAPAKKPLIKREKPEETWAAVRRGSAKKKIHPVQVMSEFRGRQVY	2	
M. musculus αE-catenin, P26231 1-906 (natural protein) MTAVHAGNINFKWDPKSLEIRTLAVERLLEPLVTQVTTLVNTNSKGPSNKKRGRSKKAHVLAASVEQATENFLEKGDKIAKESQFLKEELVVAVEDVRKQGDLMKSAAGEFADDPCSSVKRGNMVRAARALLSAVTRLLILADMADVYKLLVQLKVVEDGILKLRNAGNEQDLGIQYKALKPEVDKLNIMAAKRQQELKDVGNRDQMAAARGILQKNVPILYTASQACLQHPDVAAYKANRDLIYKQLQQAVTGISNAAQATASDDAAQHQGGSGGELAYALNNFDKQIIVDPLSFSEERFRPSLEERLESIISGAALMADSSCTRDDRRERIVAECNAVRQALQDLLSEYMGNAGRKERSDALNSAIDKMTKKTRDLRRQLRKAVMDHVSDSFLETNVPLLVLIEAAKNGNEKEVKEYAQVFREHANKLIEVANLACSISNNEEGVKLVRMSASQLEALCPQVINAALALAAKPQSKLAQENMDLFKEQWEKQVRVLTDAVDDITSIDDFLAVSENHILEDVNKCVIALQEKDVDGLDRTAGAIRGRAARVIHVVTSEMDNYEPGVYTEKVLEATKLLSNTVMPRFTEQVEAAVEALSSDPAQPMDENEFIDASRLVYDGIRDIRKAVLMIRTPEELDDSDFETEDFDVRSRTSVQTEDDQLIAGQSARAIMAQLPQEQKAKIAEQVASFQEEKSKLDAEVSKWDDSGNDIIVLAKQMCMIMMEMTDFTRGKGPLKNTSDVISAAKKIAEAGSRMDKLGRTIADHCPDSACKQDLLAYLQRIALYCHQLNICSKVKAEVQNLGGELVVSGVDSAMSLIQAAKNLMNAVVQTVKASYVASTKYQKSQGMASLNLPAVSWKMKAPEKKPLVKREKQDETQTKIKRASQKKHVNPVQALSEFKAMDSI		stoichiometry N [3]: 2
